The chains are these.
T1: TAMRA-labeled α-synuclein peptide
T1 chain: GYQDYEPEA

B1: N2.17 VHH F100fS (protein)
chain: QGQLVESGGGSVQAGGSLRLSCAASGIDSSSYCMGWFRQRPGKEREGVARINGWGGVKTAYADSVKDRFTISRDNAENTVYLQMNSLKPEDTAIYYCAAKSSPGYCGGTWSNFGYWGQGTQVTVSS
B2: N2.17 VHH S96F (protein)
chain: B1 chain with S101F, S111F
B3: N2.17 VHH W52bL (protein)
chain: B1 chain with W54L, S111F
B4: N2.17 VHH T100dS (protein)
chain: B1 chain with T109S, S111F
B5: N2.12 VHH S96F (protein)
chain: B1 chain with A49G, G55R, V57I, S101F
B6: N2.12 VHH R53G (protein)
chain: B1 chain with A49G, V57I
B7: N2.12 VHH G49A (protein)
chain: B1 chain with G55R, V57I
B8: N2.12 VHH T100dS (protein)
chain: B1 chain with A49G, G55R, V57I, T109S
B9: N2.12 VHH W52bL (protein)
chain: B1 chain with A49G, W54L, G55R, V57I

Substitutions are numbered along the chain they refer to. Names and notes keep the numbering of the source.

For the first test, the target named is T1, TAMRA-labeled α-synuclein peptide. Put plainly: fluorescence polarization. The note with it: chain shown with the change;; parent: est. 8.6 x10^7 M^-1; read off a plot. (In fluorescence polarisation assays a small probe gives low polarisation when free and higher when bound to something large.)
As for B1, the Ka was 9.6 x10^7 M^-1.
For B2, the Ka is 1.6 x10^7 M^-1.
The same measure, in the same setting: to B3 belongs 3.3 x10^7 M^-1; to B4, 3.8 x10^7 M^-1.

Still in this test, the particulars now being: chain shown with the change;; parent: est. 13 x10^7 M^-1; read off a plot.
In the case of B5, the Ka is 6.7 x10^7 M^-1.
Same read-out and setting: then B6, with 7.1 x10^7 M^-1; and B7, with 13 x10^7 M^-1.
Same read-out and setting: to B8 belongs 8.5 x10^7 M^-1; to B9, 6.2 x10^7 M^-1.

The values are drawn from publication PMC5591402.
